# Test results reported in patent publication US20250197467A1.
# Where two headings read alike, the source gives them in different places.
# Key:
# [1] = target: SEQ ID NO 50 (Homo sapiens (Human)) (UniProt Q14116); test: cell-based or functional assay
# [2] = target: SEQ ID NO 34 (Homo sapiens (Human)) (UniProt Q14116); test: cell-based or functional assay
# [3] = target: SEQ ID NO 4 (Homo sapiens (Human)) (UniProt Q14116); test: cell-based or functional assay
# [4] = target: SEQ ID NO 42 (Homo sapiens (Human)) (UniProt Q14116); test: cell-based or functional assay
# C148 (human) = C148 (human) (UniProt Q14116); test: cell-based or functional assay
# C147 (human) = C147 (human) (UniProt Q14116); test: cell-based or functional assay
# Sequence of C147 (human) (Q14116 other isoform, or with tags, fused parts or gaps): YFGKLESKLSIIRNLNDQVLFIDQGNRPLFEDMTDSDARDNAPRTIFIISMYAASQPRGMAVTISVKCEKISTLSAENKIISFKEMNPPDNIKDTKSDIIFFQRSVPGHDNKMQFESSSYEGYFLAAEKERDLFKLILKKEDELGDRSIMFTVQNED
# C157 (human) = C157 (human) (UniProt Q14116); test: cell-based or functional assay
# C153 (human) = C153 (human) (UniProt Q14116); test: cell-based or functional assay
# C164 (human) = C164 (human) (UniProt Q14116); test: cell-based or functional assay
# [5] = target: SEQ ID NO 60 (Homo sapiens (Human)) (UniProt Q14116); test: cell-based or functional assay
# Sequence of SEQ ID NO 60 (Homo sapiens (Human)) (Q14116 other isoform, or with tags, fused parts or gaps): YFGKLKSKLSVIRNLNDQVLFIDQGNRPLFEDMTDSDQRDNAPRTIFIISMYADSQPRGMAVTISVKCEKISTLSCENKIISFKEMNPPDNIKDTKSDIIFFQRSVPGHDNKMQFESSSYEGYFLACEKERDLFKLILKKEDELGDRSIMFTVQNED
# C159 (human) = C159 (human) (UniProt Q14116); test: cell-based or functional assay
# C158 (human) = C158 (human) (UniProt Q14116); test: cell-based or functional assay
# Sequence of C158 (human) (Q14116 other isoform, or with tags, fused parts or gaps): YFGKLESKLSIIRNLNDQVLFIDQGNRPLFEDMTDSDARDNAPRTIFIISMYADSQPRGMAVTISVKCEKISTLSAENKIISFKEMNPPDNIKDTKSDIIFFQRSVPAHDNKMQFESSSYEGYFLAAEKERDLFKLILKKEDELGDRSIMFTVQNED
# C166 (human) = C166 (human) (UniProt Q14116); test: cell-based or functional assay
# C152 (human) = C152 (human) (UniProt Q14116); test: cell-based or functional assay
# [6] = target: IL-18 WT (SEQ ID NO: 1) (human) (UniProt Q14116); test: cell-based or functional assay
# Sequence of IL-18 WT (SEQ ID NO: 1) (human) (Q14116 37-193): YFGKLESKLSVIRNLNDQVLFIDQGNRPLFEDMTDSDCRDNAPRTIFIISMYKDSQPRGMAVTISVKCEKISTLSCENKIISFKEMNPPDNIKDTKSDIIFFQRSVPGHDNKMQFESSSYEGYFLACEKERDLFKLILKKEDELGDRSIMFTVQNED
# [7] = target: SEQ ID NO 35 (Homo sapiens (Human)) (UniProt Q14116); test: cell-based or functional assay
# [8] = target: C086 (SEQ ID NO: 30) (Homo sapiens (Human)) (UniProt Q14116); test: cell-based or functional assay
# [9] = target: SEQ ID NO 47 (Homo sapiens (Human)) (UniProt Q14116); test: cell-based or functional assay
# Sequence of SEQ ID NO 47 (Homo sapiens (Human)) (Q14116 other isoform, or with tags, fused parts or gaps): as the sequence (Q14116 37-193) above, with C38S, C68S, C76S, C127S counted along it
# [10] = target: SEQ ID NO 57 (Homo sapiens (Human)) (UniProt Q14116); test: cell-based or functional assay
# C154 (human) = C154 (human) (UniProt Q14116); test: cell-based or functional assay
# Sequence of C154 (human) (Q14116 other isoform, or with tags, fused parts or gaps): as the sequence (Q14116 37-193) above, with V11I, E31A, D37A, C38A, K53A, C76A, C127A counted along it
# C144 (human) = C144 (human) (UniProt Q14116); test: cell-based or functional assay
# [11] = target: C190 (Homo sapiens (Human)) (UniProt Q14116); test: cell-based or functional assay
# [12] = target: SEQ ID NO 39 (Homo sapiens (Human)) (UniProt Q14116); test: cell-based or functional assay
# Sequence of SEQ ID NO 39 (Homo sapiens (Human)) (Q14116 other isoform, or with tags, fused parts or gaps): as the sequence (Q14116 37-193) above, with E6K, K53A counted along it
# C151 (human) = C151 (human) (UniProt Q14116); test: cell-based or functional assay
# Sequence of C151 (human) (Q14116 other isoform, or with tags, fused parts or gaps): as the sequence (Q14116 37-193) above, with V11I, D35A, C38A, K53A, C76A, C127A counted along it
# C162 (human) = C162 (human) (UniProt Q14116); test: cell-based or functional assay
# C156 (human) = C156 (human) (UniProt Q14116); test: cell-based or functional assay
# C165 (human) = C165 (human) (UniProt Q14116); test: cell-based or functional assay
# [13] = target: SEQ ID NO 37 (Homo sapiens (Human)) (UniProt Q14116); test: cell-based or functional assay
# Sequence of SEQ ID NO 37 (Homo sapiens (Human)) (Q14116 37-193 S91A): as the sequence (Q14116 37-193) above, with S55A counted along it
# [14] = target: C146 (Homo sapiens (Human)) (UniProt Q14116); test: cell-based or functional assay
# Sequence of C146 (Homo sapiens (Human)) (Q14116 other isoform, or with tags, fused parts or gaps): as the sequence (Q14116 37-193) above, with V11I, C38A, M51G, K53A, C76A, C127A counted along it
# C145 (human) = C145 (human) (UniProt Q14116); test: cell-based or functional assay
# Sequence of C145 (human) (Q14116 other isoform, or with tags, fused parts or gaps): as the sequence (Q14116 37-193) above, with V11I, C38A, K53A, S55A, C76A, C127A counted along it
# [15] = target: SEQ ID NO 51 (Homo sapiens (Human)) (UniProt Q14116); test: cell-based or functional assay
# [16] = target: SEQ ID NO 52 (Homo sapiens (Human)) (UniProt Q14116); test: cell-based or functional assay
# [17] = target: SEQ ID NO 59 (Homo sapiens (Human)) (UniProt Q14116); test: cell-based or functional assay
# C161 (human) = C161 (human) (UniProt Q14116); test: cell-based or functional assay
# C160 (human) = C160 (human) (UniProt Q14116); test: cell-based or functional assay
# C167 (human) = C167 (human) (UniProt Q14116); test: cell-based or functional assay
# [18] = target: SEQ ID NO 54 (Homo sapiens (Human)) (UniProt Q14116); test: cell-based or functional assay
# [19] = target: SEQ ID NO 6 (Homo sapiens (Human)) (UniProt Q14116); test: cell-based or functional assay
# [20] = target: SEQ ID NO 36 (Homo sapiens (Human)) (UniProt Q14116); test: cell-based or functional assay
# [21] = target: SEQ ID NO 41 (Homo sapiens (Human)) (UniProt Q14116); test: cell-based or functional assay
# [22] = target: SEQ ID NO 5 (Homo sapiens (Human)) (UniProt Q14116); test: cell-based or functional assay
# C150 (human) = C150 (human) (UniProt Q14116); test: cell-based or functional assay
# [23] = target: SEQ ID NO 9 (Homo sapiens (Human)) (UniProt Q14116); test: cell-based or functional assay
# C168 (human) = C168 (human) (UniProt Q14116); test: cell-based or functional assay
# [24] = target: SEQ ID NO 43 (Homo sapiens (Human)) (UniProt Q14116); test: cell-based or functional assay
# Sequence of SEQ ID NO 43 (Homo sapiens (Human)) (Q14116 other isoform, or with tags, fused parts or gaps): as the sequence (Q14116 37-193) above, with Y1G, E6K, K53A, S55A counted along it
# C149 (human) = C149 (human) (UniProt Q14116); test: cell-based or functional assay
# [25] = target: SEQ ID NO 48 (Homo sapiens (Human)) (UniProt Q14116); test: cell-based or functional assay
# Sequence of SEQ ID NO 48 (Homo sapiens (Human)) (Q14116 other isoform, or with tags, fused parts or gaps): as the sequence (Q14116 37-193) above, with C38S, C68S, K70C, C76S, C127S counted along it
# [26] = target: SEQ ID NO 55 (Homo sapiens (Human)) (UniProt Q14116); test: cell-based or functional assay
# [27] = target: SEQ ID NO 46 (Homo sapiens (Human)) (UniProt Q14116); test: cell-based or functional assay
# C163 (human) = C163 (human) (UniProt Q14116); test: cell-based or functional assay
# [28] = target: SEQ ID NO 40 (Homo sapiens (Human)) (UniProt Q14116); test: cell-based or functional assay
# [29] = target: SEQ ID NO 38 (Homo sapiens (Human)) (UniProt Q14116); test: cell-based or functional assay
# C143 (human) = C143 (human) (UniProt Q14116); test: cell-based or functional assay
# [30] = target: SEQ ID NO 62 (Homo sapiens (Human)) (UniProt Q14116); test: cell-based or functional assay
# [31] = target: SEQ ID NO 53 (Homo sapiens (Human)) (UniProt Q14116); test: cell-based or functional assay
# C155 (human) = C155 (human) (UniProt Q14116); test: cell-based or functional assay
# [32] = target: Composition S (Homo sapiens (Human)) (UniProt Q14116)
# Sequence of Composition S (Homo sapiens (Human)) (heavy, as listed by the source, chain 1 of 3): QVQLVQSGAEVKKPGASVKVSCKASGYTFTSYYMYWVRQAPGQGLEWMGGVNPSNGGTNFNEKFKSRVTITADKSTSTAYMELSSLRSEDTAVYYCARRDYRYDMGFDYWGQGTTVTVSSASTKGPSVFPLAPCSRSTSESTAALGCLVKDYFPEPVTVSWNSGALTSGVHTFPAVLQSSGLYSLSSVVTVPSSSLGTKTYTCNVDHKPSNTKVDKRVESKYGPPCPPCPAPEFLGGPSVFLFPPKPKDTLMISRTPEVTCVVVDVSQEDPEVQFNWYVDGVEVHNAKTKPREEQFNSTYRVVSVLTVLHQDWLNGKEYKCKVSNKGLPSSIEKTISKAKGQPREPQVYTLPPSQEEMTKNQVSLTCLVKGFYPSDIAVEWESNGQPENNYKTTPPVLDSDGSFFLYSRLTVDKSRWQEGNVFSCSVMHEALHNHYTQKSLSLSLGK
# Sequence of Composition S (Homo sapiens (Human)) (light, as listed by the source, chain 2 of 3): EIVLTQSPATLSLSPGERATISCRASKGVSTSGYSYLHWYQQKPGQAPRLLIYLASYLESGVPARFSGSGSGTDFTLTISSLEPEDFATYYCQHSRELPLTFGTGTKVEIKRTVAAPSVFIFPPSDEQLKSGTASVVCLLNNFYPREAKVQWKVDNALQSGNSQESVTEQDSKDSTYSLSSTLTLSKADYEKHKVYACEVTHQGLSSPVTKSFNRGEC
# Sequence of Composition S (Homo sapiens (Human)) (Q14116 other isoform, or with tags, fused parts or gaps, chain 3 of 3): as the sequence (Q14116 37-193) above, with E6K, V11I, C38A, K53A, T63A, C76A, C127A counted along it
# [33] = target: Composition E, MMP9-treated (Homo sapiens (Human)) (UniProt Q14116)
# Sequence of Composition E, MMP9-treated (Homo sapiens (Human)) (heavy, as listed by the source, chain 1 of 3): as the sequence (heavy, as listed by the source, chain 1 of 3) above
# Sequence of Composition E, MMP9-treated (Homo sapiens (Human)) (light, as listed by the source, chain 2 of 3): as the sequence (light, as listed by the source, chain 2 of 3) above
# Sequence of Composition E, MMP9-treated (Homo sapiens (Human)) (Q14116 other isoform, or with tags, fused parts or gaps, chain 3 of 3): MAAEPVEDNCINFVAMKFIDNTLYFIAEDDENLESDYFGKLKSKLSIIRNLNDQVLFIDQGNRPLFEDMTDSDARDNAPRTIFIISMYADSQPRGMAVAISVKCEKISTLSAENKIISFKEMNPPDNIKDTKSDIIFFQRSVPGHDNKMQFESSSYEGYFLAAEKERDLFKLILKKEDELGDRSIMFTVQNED
# [34] = target: His-tagged human IL-18BP (human) (UniProt O95998); test: AlphaLISA of free IL-18BP
# Sequence of His-tagged human IL-18BP (human) (O95998 31-194): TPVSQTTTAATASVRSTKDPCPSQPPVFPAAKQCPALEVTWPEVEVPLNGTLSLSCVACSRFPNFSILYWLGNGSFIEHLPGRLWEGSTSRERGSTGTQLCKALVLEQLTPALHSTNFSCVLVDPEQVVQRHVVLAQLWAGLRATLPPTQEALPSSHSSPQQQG
# [35] = target: His-tagged human IL-18BP (human) (UniProt O95998); test: AlphaLISA of free IL-18BP; remark: listed apart in the source
# [36] = target: His-tagged human IL-18BP (human) (UniProt O95998); test: AlphaLISA of free IL-18BP (analyte titrated in assay buffer against 5 ng/ml His-tagged human IL-18BP; falling signal = IL-18BP bound)
# Sequence of Fc-fused human IL-18 binding protein isoform a (IL-18BPa) (O95998 31-194 limits assumed): as the sequence (O95998 31-194) above
# Sequence of IL-18 WT (SEQ ID NO: 1) (Q14116 37-193): as the sequence (Q14116 37-193) above
# Sequence of SEQ ID NO 34 (Homo sapiens (Human)) (Q14116 other isoform, or with tags, fused parts or gaps): as the sequence (Q14116 37-193) above, with E6K, K53A, S55A counted along it
# Sequence of SEQ ID NO 4 (Homo sapiens (Human)) (Q14116 other isoform, or with tags, fused parts or gaps): as the sequence (Q14116 37-193) above, with E6K, C38A, K53A, C68A, M86C counted along it
substance,measurement,setting,value
Fc-fused human IL-18 binding protein isoform a (IL-18BPa) (from UniProt O95998 31-194) (Fc fusion),"IC50 (IL-18BP inhibition of IFNγ, NK92)",[1],> 1000 nM
same,"IC50 (IL-18BP inhibition of IFNγ, NK92)",[2],229 nM
same,"IC50 (IL-18BP inhibition of IFNγ, NK92)",[3],396 nM
same,"IC50 (IL-18BP inhibition of IFNγ, NK92)",[4],1060 nM
same,"IC50 (IL-18BP inhibition of IFNγ, NK92)",C148 (human),5.05 nM
same,"IC50 (IL-18BP inhibition of IFNγ, NK92)",C147 (human),47.6 nM
same,"IC50 (IL-18BP inhibition of IFNγ, NK92)",C157 (human),6.08 nM
same,"IC50 (IL-18BP inhibition of IFNγ, NK92)",C153 (human),2.22 nM
same,"IC50 (IL-18BP inhibition of IFNγ, NK92)",C164 (human),0.456 nM
same,"IC50 (IL-18BP inhibition of IFNγ, NK92)",[5],780 nM
same,"IC50 (IL-18BP inhibition of IFNγ, NK92)",C159 (human),1.81 nM
same,"IC50 (IL-18BP inhibition of IFNγ, NK92)",C158 (human),3.98 nM
same,"IC50 (IL-18BP inhibition of IFNγ, NK92)",C166 (human),0.44 nM
same,"IC50 (IL-18BP inhibition of IFNγ, NK92)",C152 (human),7.85 nM
same,"IC50 (IL-18BP inhibition of IFNγ, NK92)",[6],1.47 nM
same,IL-18BP-mediated IFNγ inhibition NK-92 assay IC50,[6],0.403 nM
same,"IC50 (IL-18BP inhibition of IFNγ, NK92)",[7],> 55 nM
same,IL-18BP-mediated IFNγ inhibition NK-92 assay IC50,[8],22.5 nM
same,"IC50 (IL-18BP inhibition of IFNγ, NK92)",[9],0.444 nM
same,"IC50 (IL-18BP inhibition of IFNγ, NK92)",[10],146 nM
same,"IC50 (IL-18BP inhibition of IFNγ, NK92)",C154 (human),3.71 nM
same,"IC50 (IL-18BP inhibition of IFNγ, NK92)",C144 (human),7.52 nM
same,IL-18BP-mediated IFNγ inhibition NK-92 assay IC50,[11],4.33 nM
same,"IC50 (IL-18BP inhibition of IFNγ, NK92)",[12],> 703 nM
same,"IC50 (IL-18BP inhibition of IFNγ, NK92)",C151 (human),3.62 nM
same,"IC50 (IL-18BP inhibition of IFNγ, NK92)",C162 (human),7.29 nM
same,"IC50 (IL-18BP inhibition of IFNγ, NK92)",C156 (human),0.681 nM
same,"IC50 (IL-18BP inhibition of IFNγ, NK92)",C165 (human),0.885 nM
same,"IC50 (IL-18BP inhibition of IFNγ, NK92)",[13],4.46 nM
same,"IC50 (IL-18BP inhibition of IFNγ, NK92)",[14],733 nM
same,"IC50 (IL-18BP inhibition of IFNγ, NK92)",C145 (human),10.2 nM
same,"IC50 (IL-18BP inhibition of IFNγ, NK92)",[15],0.239 nM
same,"IC50 (IL-18BP inhibition of IFNγ, NK92)",[16],47.1 nM
same,"IC50 (IL-18BP inhibition of IFNγ, NK92)",[17],654 nM
same,"IC50 (IL-18BP inhibition of IFNγ, NK92)",C161 (human),1.07 nM
same,"IC50 (IL-18BP inhibition of IFNγ, NK92)",C160 (human),3.18 nM
same,"IC50 (IL-18BP inhibition of IFNγ, NK92)",C167 (human),0.809 nM
same,"IC50 (IL-18BP inhibition of IFNγ, NK92)",[18],23.5 nM
same,"IC50 (IL-18BP inhibition of IFNγ, NK92)",[19],5.85 nM
same,"IC50 (IL-18BP inhibition of IFNγ, NK92)",[20],27.3 nM
same,"IC50 (IL-18BP inhibition of IFNγ, NK92)",[21],37.3 nM
same,"IC50 (IL-18BP inhibition of IFNγ, NK92)",[22],62.4 nM
same,"IC50 (IL-18BP inhibition of IFNγ, NK92)",C150 (human),21.3 nM
same,"IC50 (IL-18BP inhibition of IFNγ, NK92)",[23],961 nM
same,"IC50 (IL-18BP inhibition of IFNγ, NK92)",C168 (human),0.176 nM
same,"IC50 (IL-18BP inhibition of IFNγ, NK92)",[24],27.8 nM
same,"IC50 (IL-18BP inhibition of IFNγ, NK92)",C149 (human),1.17 nM
same,"IC50 (IL-18BP inhibition of IFNγ, NK92)",[25],0.114 nM
same,"IC50 (IL-18BP inhibition of IFNγ, NK92)",[26],> 1000 nM
same,"IC50 (IL-18BP inhibition of IFNγ, NK92)",[27],0.189 nM
same,"IC50 (IL-18BP inhibition of IFNγ, NK92)",C163 (human),0.823 nM
same,"IC50 (IL-18BP inhibition of IFNγ, NK92)",[28],15 nM
same,"IC50 (IL-18BP inhibition of IFNγ, NK92)",[29],7.79 nM
same,"IC50 (IL-18BP inhibition of IFNγ, NK92)",C143 (human),1.62 nM
same,"IC50 (IL-18BP inhibition of IFNγ, NK92)",[30],284 nM
same,"IC50 (IL-18BP inhibition of IFNγ, NK92)",[31],18.2 nM
same,"IC50 (IL-18BP inhibition of IFNγ, NK92)",C155 (human),3.23 nM
same,"IC50 (read off the curve), PD-1 negative NK-92 cells",[32],8 nM
same,"IC50 (read off the curve), PD-1 positive NK-92 cells",[33],8 nM
IL-18 WT (SEQ ID NO: 1) (from UniProt Q14116 37-193) (ligand),Kd,[34],0.403 nM
same,Kd,[35],0.67 nM
same,IC50 (read off the curve),[36],0.08 nM
